Data: patent US10030233B2, “Modified P450 reductase with N-terminal deletions and endoplasmic reticulum retention tag” (DE MONTFORT UNIVERSITY, priority 2013, dated 2018)

B1: ΔN1hRD-M: human P450 reductase lacking N-terminal 24 amino acids, with C-terminal 12-amino acid c-myc tag; described in WO 2007/129050; gene SEQ ID NO: 5 (protein)
chain: MTDMILFSLIVGLLTYWFLFRKKKEEVPEFTKIQTLTSSVRESSFVEKMKKTGRNIIVFYGSQTGTAEEFANRLSKDAHRYGMRGMSADPEEYDLADLSSLPEIDNALVVFCMATYGEGDPTDNAQDFYDWLQETDVDLSGVKFAVFGLGNKTYEHFNAMGKYVDKRLEQLGAQRIFELGLGDDDGNLEEDFITWREQFWPAVCEHFGVEATGEESSIRQYELVVHTDIDAAKVYMGEMGRLKSYENQKPPFDAKNPFLAAVTTNRKLNQGTERHLMHLELDISDSKIRYESGDHVAVYPANDSALVNQLGKILGADLDVVMSLNNLDEESNKKHPFPCPTSYRTALTYYLDITNPPRTNVLYELAQYASEPSEQELLRKMASSSGEGKELYLSWVVEARRHILAILQDCPSLRPPIDHLCELLPRLQARYYSIASSSKVHPNSVHICAVVVEYETKAGRINKGVATNWLRAKEPAGENGGRALVPMFVRKSQFRLPFKATTPVIMVGPGTGVAPFIGFIQERAWLRQQGKEVGETLLYYGCRRSDEDYLYREELAQFHRDGALTQLNVAFSREQSHKVYVQHLLKQDREHLWKLIEGGAHIYVCGDARNMARDVQNTFYDIVAELGAMEHAQAVDYIKKLMTKGRYSLDVWSSSEQKLISEEDLNGSRL
modifications: delN1hRD-M
B2: ΔN1hRD-HDEL: human P450 reductase lacking N-terminal 24 amino acids, with C-terminal yeast ER retention signal HDEL (protein)
chain: MTDMILFSLIVGLLTYWFLFRKKKEEVPEFTKIQTLTSSVRESSFVEKMKKTGRNIIVFYGSQTGTAEEFANRLSKDAHRYGMRGMSADPEEYDLADLSSLPEIDNALVVFCMATYGEGDPTDNAQDFYDWLQETDVDLSGVKFAVFGLGNKTYEHFNAMGKYVDKRLEQLGAQRIFELGLGDDDGNLEEDFITWREQFWPAVCEHFGVEATGEESSIRQYELVVHTDIDAAKVYMGEMGRLKSYENQKPPFDAKNPFLAAVTTNRKLNQGTERHLMHLELDISDSKIRYESGDHVAVYPANDSALVNQLGKILGADLDVVMSLNNLDEESNKKHPFPCPTSYRTALTYYLDITNPPRTNVLYELAQYASEPSEQELLRKMASSSGEGKELYLSWVVEARRHILAILQDCPSLRPPIDHLCELLPRLQARYYSIASSSKVHPNSVHICAVVVEYETKAGRINKGVATNWLRAKEPAGENGGRALVPMFVRKSQFRLPFKATTPVIMVGPGTGVAPFIGFIQERAWLRQQGKEVGETLLYYGCRRSDEDYLYREELAQFHRDGALTQLNVAFSREQSHKVYVQHLLKQDREHLWKLIEGGAHIYVCGDARNMARDVQNTFYDIVAELGAMEHAQAVDYIKKLMTKGRYSLDVWSHDEL
modifications: delN1hRD-HDEL
notes: human P450 reductase lacking N-terminal 24 amino acids, with C-terminal yeast ER retention signal HDEL
B3: hRD: wild-type human P450 reductase, full length, control (protein, listed as Homo sapiens)
chain: MGDSHVDTSSTVSEAVAEEVSLFSMTDMILFSLIVGLLTYWFLFRKKKEEVPEFTKIQTLTSSVRESSFVEKMKKTGRNIIVFYGSQTGTAEEFANRLSKDAHRYGMRGMSADPEEYDLADLSSLPEIDNALVVFCMATYGEGDPTDNAQDFYDWLQETDVDLSGVKFAVFGLGNKTYEHFNAMGKYVDKRLEQLGAQRIFELGLGDDDGNLEEDFITWREQFWPAVCEHFGVEATGEESSIRQYELVVHTDIDAAKVYMGEMGRLKSYENQKPPFDAKNPFLAAVTTNRKLNQGTERHLMHLELDISDSKIRYESGDHVAVYPANDSALVNQLGKILGADLDVVMSLNNLDEESNKKHPFPCPTSYRTALTYYLDITNPPRTNVLYELAQYASEPSEQELLRKMASSSGEGKELYLSWVVEARRHILAILQDCPSLRPPIDHLCELLPRLQARYYSIASSSKVHPNSVHICAVVVEYETKAGRINKGVATNWLRAKEPAGENGGRALVPMFVRKSQFRLPFKATTPVIMVGPGTGVAPFIGFIQERAWLRQQGKEVGETLLYYGCRRSDEDYLYREELAQFHRDGALTQLNVAFSREQSHKVYVQHLLKQDREHLWKLIEGGAHIYVCGDARNMARDVQNTFYDIVAELGAMEHAQAVDYIKKLMTKGRYSLDVWS
B4: ΔN2hRD-HDEL: human P450 reductase lacking the 54-amino acid membrane anchoring region, with C-terminal yeast ER retention signal HDEL (protein)
chain: MTKIQTLTSSVRESSFVEKMKKTGRNIIVFYGSQTGTAEEFANRLSKDAHRYGMRGMSADPEEYDLADLSSLPEIDNALVVFCMATYGEGDPTDNAQDFYDWLQETDVDLSGVKFAVFGLGNKTYEHFNAMGKYVDKRLEQLGAQRIFELGLGDDDGNLEEDFITWREQFWPAVCEHFGVEATGEESSIRQYELVVHTDIDAAKVYMGEMGRLKSYENQKPPFDAKNPFLAAVTTNRKLNQGTERHLMHLELDISDSKIRYESGDHVAVYPANDSALVNQLGKILGADLDVVMSLNNLDEESNKKHPFPCPTSYRTALTYYLDITNPPRTNVLYELAQYASEPSEQELLRKMASSSGEGKELYLSWVVEARRHILAILQDCPSLRPPIDHLCELLPRLQARYYSIASSSKVHPNSVHICAVVVEYETKAGRINKGVATNWLRAKEPAGENGGRALVPMFVRKSQFRLPFKATTPVIMVGPGTGVAPFIGFIQERAWLRQQGKEVGETLLYYGCRRSDEDYLYREELAQFHRDGALTQLNVAFSREQSHKVYVQHLLKQDREHLWKLIEGGAHIYVCGDARNMARDVQNTFYDIVAELGAMEHAQAVDYIKKLMTKGRYSLDVWSHDEL
modifications: delN2hRD-HDEL
notes: human P450 reductase lacking the 54-amino acid membrane anchoring region, with C-terminal yeast ER retention signal HDEL

These molecules were tested on CYP1A2 (assay: Amount of CYP1A2 in yeast microsomes by CO-difference spectra, co-expressed with P450 reductase variants). Settings: relative to hRD = 1; yeast W303B, pSYE265.
Format: cell-based, human
Method: The hRD variant genes, (ΔN1hRD-M, ΔN1hRD-HDEL, ΔN2hRD-HDEL), were integrated into Saccharomyces cerevisiae strain W303B (MAT a leu2 his3 trp1 can1-100 ade2 trp1 ura3) using standard yeast transformation procedures as detailed below. The integrating plasmids, bearing the ΔN1hRD-M, ΔN1hRD-HDEL, ΔN2hRD-HDEL genes, were first linearised with the restriction enzyme BstEII before introducing linearised DNA into yeast cells via homologous recombination. The resultant strains were named: • a) W303B-ΔN1hRD-M, • b) W303B-ΔN1hRD-HDEL, • c) W303B-ΔN2hRD-HDEL.
They were used for the transformation of the yeast episomal plasmids that bear the CYP2D6 and CYP1A2 genes: • 1. pSYE264 (bearing the human CYP2D6 gene), • 2. pSYE265 (bearing the human CYP1A2 gene).
A single colony from the strains W303B-ΔN1hRD-M, W303B-ΔN1hRD-HDEL, W303B-ΔN2hRD-HDEL were picked up from a minimal medium (SD) plate (supplemented with appropriate nutrients depending on the auxotrophic markers in the yeast strain) and inoculated into 10 ml of YPD medium (2% Bacto Peptone, 1% yeast extract, 2% glucose). The cells were grown overnight at 30° C. with 220 rpm shaking. 1.5 ml of overnight cultures were centrifuged at 13,000 rpm for a few seconds to collect the cell pellets. 0.5-2 μg of transforming DNA (i.e. the CYP bearing expression plasmids, pSYE264 and pSYE265) and 100 μg of single-stranded salmon sperm DNA were added to pellets and vortexed briefly. 500 μl of PEG solution (40% PEG 3350, 0.1M lithium acetate pH 7.5, 10 mM Tris-HCl pH 7.5, 1 mM EDTA pH7.5) and 5-10% DMSO were added to transformation mixes. All mixes were incubated in a Thermo-mixer for 15 min at 25° C. with shaking at 400 rpm, and then were heat shocked for 15 min at 42° C. After 10 min, 5-10% ethanol was added. The cells were pelleted at 8000 rpm for 1 min and were washed twice in 1×TE buffer and re-suspended in 250 μl-500 μl 1×TE pH7.5. The cells were plated out on SD agar medium and incubated at 30° C. for 2-3 days.
Recombinant yeast cells were grown in culture using the following protocol: • 1. […] On day two, once OD600 (i.e. OD measured at 600 nm) of the cultures reached 5 to 6 OD-s, the cultures were inoculated into 400 ml YPD medium (1% Bacto Peptone, 1% yeast extract, 2% glucose) with appropriate nutrients in 2-liter flask. […] On day three, after 16 hours, optical density was again measured at 600 nm after diluting the original culture 1:10. […] At the final step, supernatant was poured away and the dry pellet was frozen at −80° C. and the pellet weight was recorded. […]
The cell pellet that had been obtained from the earlier cell culture was weighed and the weight of cell pellet was recorded. […]

Molecule | Relative Amounts of CYP1A2 Obtained
B1 | 3.2 ± 10%
B2 | 4.0 ± 10%
B3 | 1
B4 | 4.5 ± 10%
